Tests used:
[1] = molecular target: T1, cynomolgus TCR/CD3 expressed on cells (cynomolgus); experiment: flow cytometry competition, HSC-F cells, competitor T017000099 (500 nM)
T1 construct: whole, on cells; Native complex with CD3 chains; the cell type is named under assay or readout; also called cyno TCR/CD3; CD3/TCR expressed on HSC-F

[2] = molecular target: T1, cynomolgus TCR/CD3 expressed on cells; experiment: cell-based or functional assay
[3] = molecular target: T2, human CD123 expressed on cells (human, UniProt P26951 19-378); experiment: flow cytometry competition, CHO Flp-In huCD123 cells, competitor A0110056A10-Alexa647 (0.9 nM)
T2 construct: the cell line is named under assay; also called huCD123; IL-3Rα

[4] = molecular target: T2, human CD123 expressed on cells; experiment: cell-based or functional assay
[5] = molecular target: T2, human CD123 expressed on cells; experiment: cell-based or functional assay; remark: listed apart in the source
[6] = molecular target: T2, human CD123 expressed on cells; experiment: cell-based or functional assay; remark: listed apart in the source
[7] = molecular target: T2, human CD123 expressed on cells; experiment: cell-based or functional assay; remark: listed apart in the source
[8] = molecular target: T1, cynomolgus TCR/CD3 expressed on cells; experiment: cell-based or functional assay; remark: listed apart in the source
[9] = molecular target: T2, human CD123 expressed on cells; experiment: flow cytometry competition, MOLM-13 cells, competitor A0110056A10-Alexa647 (0.4 nM)
[10] = molecular target: T3, cynomolgus CD123 expressed on HEK Flp-In cells (cynomolgus); experiment: flow cytometry competition, HEK Flp-In cyCD123 cells, competitor A0110056A10-Alexa647 (0.9 nM)
T3 construct: EHH61867.1; also called cyCD123; cyno CD123
T3 chain: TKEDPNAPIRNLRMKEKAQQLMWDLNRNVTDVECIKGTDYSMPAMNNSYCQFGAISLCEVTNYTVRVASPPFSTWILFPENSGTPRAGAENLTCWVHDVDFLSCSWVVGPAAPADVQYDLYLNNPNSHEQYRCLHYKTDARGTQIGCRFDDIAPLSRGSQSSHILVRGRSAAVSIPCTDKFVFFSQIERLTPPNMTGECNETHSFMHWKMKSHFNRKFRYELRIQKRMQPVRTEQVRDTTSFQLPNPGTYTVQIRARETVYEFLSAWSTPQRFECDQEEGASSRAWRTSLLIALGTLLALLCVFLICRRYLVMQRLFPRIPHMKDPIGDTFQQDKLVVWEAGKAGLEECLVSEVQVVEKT

human CD123 [11] = molecular target: T4, human CD123 (human, UniProt P26951 19-378); experiment: cell-based or functional assay
human CD123 [12] = molecular target: T4, human CD123; experiment: cell-based or functional assay; remark: listed apart in the source
[13] = molecular target: T5, recombinant human CD123 protein (R&D Systems, 301-R3/CF) (human, UniProt P26951 19-305); experiment: SPR (ProteOn XPR36), CD123 immobilized
T5 construct: Bought recombinant His-tagged extracellular domain of human CD123; also called recombinant CD123; in house biotinylated-CD123 recombinant protein; not shown: His tag of the bought protein
T5 sequence: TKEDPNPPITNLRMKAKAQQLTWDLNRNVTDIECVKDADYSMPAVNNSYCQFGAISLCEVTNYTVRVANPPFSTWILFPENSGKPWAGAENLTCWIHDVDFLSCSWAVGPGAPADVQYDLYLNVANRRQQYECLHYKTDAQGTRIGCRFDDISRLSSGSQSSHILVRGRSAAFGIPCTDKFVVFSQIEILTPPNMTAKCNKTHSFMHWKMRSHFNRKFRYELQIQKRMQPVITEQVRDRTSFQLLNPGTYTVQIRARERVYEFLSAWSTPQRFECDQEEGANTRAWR

B1: T017000129 (bispecific antibody)
chain: DVQLVESGGGLVQPGGSLRLSCVASGDVHKINFLGWYRQAPGKEREKVAHISIGDQTDYADSAKGRFTISRDESKNMVYLQMNSLKPEDTAVYFCRAFSRIYPYDYWGQGTLVTVSSGGGGSGGGGSGGGGSGGGGSGGGGSGGGGSGGGGSEVQLVESGGGLVQAGDSLRLSCAASGRTFSSYAMGWFRQAPGKEREFVAAISWSDGSTYYADSVKGRFTISRDNAKNTVYLQMNSLKPEDTAVYYCAADLTSTNPGSYIYIWAYDYWGQGTLVTVSSA
notes: Control: anti-TCR Nanobody linked to the irrelevant anti-RSV Nanobody; also called irrelevant multivalent polypeptide T017000129
IC50 [1]: 520 nM

B2: T017000128 (bispecific antibody)
chain: DVQLVESGGGLVQPGGSLRLSCVASGDVHKINFLGWYRQAPGKEREKVAHISIGDQTDYADSAKGRFTISRDESKNMVYLQMNSLKPEDTAVYFCRAFSRIYPYDYWGQGTLVTVSSGGGGSGGGGSGGGGSGGGGSGGGGSGGGGSGGGGSEVQLVESGGGLVQAGGSLRLSCAASGITSKINDMGWYRQTPGNYREWVASITATGTTNYRDSVKGRFTISRDNAKSTVYLQMNSLKPEDTTVYYCNTFPPISNFWGQGTLVTVSSA
notes: Multispecific Nanobody polypeptide expressed in Pichia
% lysis, redirected cyno T cell mediated killing of KG1a cells, flow cytometry [2]: 38%
EC50 (M), redirected cyno T cell mediated killing of KG1a cells, flow cytometry [2]: 3.2e-10 M
IC50 [3]: 5.8 nM
IC50 [1]: 630 nM
EC50 (M), human IL-6 secretion during human T cell mediated killing of CD123 transfected adherent target cells [4]: 6.9e-11 M
EC50 (M), IFN-γ secretion by cynomolgus T cells during killing of CD123 transfected adherent target cells [5]: 1e-10 M
EC50 (M), IFN-γ secretion by human T cells during killing of CD123 transfected adherent target cells [5]: 8.6e-11 M
% lysis, redirected human T cell mediated killing of KG1a cells, flow cytometry, E:T 10:1 [6]: 28%
EC50 (M), redirected human T cell mediated killing of KG1a cells, flow cytometry, E:T 10:1 [6]: 8.7e-10 M
% lysis, redirected human T cell mediated killing of MOLM-13 cells, flow cytometry, E:T 10:1 [7]: 20%
EC50 (M), redirected human T cell mediated killing of MOLM-13 cells, flow cytometry, E:T 10:1 [7]: 1.5e-10 M
% lysis, redirected cyno T cell mediated killing of MOLM-13 cells, flow cytometry, E:T 10:1 [8]: 50%
EC50 (M), redirected cyno T cell mediated killing of MOLM-13 cells, flow cytometry, E:T 10:1 [8]: 1.8e-10 M
IC50 [9]: 3.1 nM
IC50 [10]: 31 nM

B3: T017000138 (bispecific antibody)
chain: DVQLVESGGGLVQPGGSLRLSCVASGDVHKINFLGWYRQAPGKEREKVAHISIGDQTDYADSAKGRFTISRDESKNMVYLQMNSLKPEDTAVYFCRAFSRIYPYDYWGQGTLVTVSSGGGGSGGGGSGGGGSGGGGSGGGGSGGGGSGGGGSEVQLVESGGGLVQAGGSLRLSCAASGITSKINDMGWYRQTPGNYREWVASITATGTTNYRDSVKGRFTISRDNAKSTVYLQMNSLKPEDTTVYYCNTFPPISNFWGQGTLVTVSSGGGGSGGGGSGGGGSGGGGSGGGGSGGGGSGGGGSEVQLVESGGGLVQAGGPLRLSCAASGRTFSSYVMGWFRQAPGKEREFVAAIYWSNGKTQYTDSVKGRFTISGDNAKNTVYLQMNSLNPEDTAVYYCVADKDETGFRTLPIAYDYWGQGTLVTVSSA
% lysis, redirected cynomolgus T cell mediated killing of KG1a cells, flow cytometry, E:T 10:1 (human CD123 [11]): 21%
% lysis, redirected human T cell mediated killing of KG1a cells, flow cytometry, E:T 10:1 (human CD123 [11]): 64%
EC50 (M), redirected cynomolgus T cell mediated killing of KG1a cells, flow cytometry, E:T 10:1 (human CD123 [11]): 2.8e-11 M
EC50 (M), redirected human T cell mediated killing of KG1a cells, flow cytometry, E:T 10:1 (human CD123 [11]): 1.6e-10 M
EC50 (M), redirected cynomolgus T cell mediated killing of MOLM-13 cells, flow cytometry, E:T 10:1 (human CD123 [12]): 1.5e-10 M
EC50 (M), redirected human T cell mediated killing of MOLM-13 cells, flow cytometry, E:T 10:1 (human CD123 [12]): 1.1e-10 M

B4: T017000138 (bispecific antibody)
chain: DVQLVESGGGLVQPGGSLRLSCVASGDVHKINFLGWYRQAPGKEREKVAHISIGDQTDYADSAKGRFTISRDESKNMVYLQMNSLKPEDTAVYFCRAFSRIYPYDYWGQGTLVTVSSGGGGSGGGGSGGGGSGGGGSGGGGSGGGGSGGGGSEVQLVESGGGLVQAGGSLRLSCAASGITSKINDMGWYRQTPGNYREWVASITATGTTNYRDSVKGRFTISRDNAKSTVYLQMNSLKPEDTTVYYCNTFPPISNFWGQGTLVTVSSGGGGSGGGGSGGGGSGGGGSGGGGSGGGGSGGGGSEVQLVESGGGLVQAGGPLRLSCAASGRTFSSYVMGWFRQAPGKEREFVAAIYWSNGKTQYTDSVKGRFTISGDNAKNTVYLQMNSLNPEDTAVYYCVADKDETGFRTLPIAYDYWGQGTLVTVSSA
notes: as for B2
% lysis, redirected cyno T cell mediated killing of KG1a cells, flow cytometry [2]: 38%
EC50 (M), redirected cyno T cell mediated killing of KG1a cells, flow cytometry [2]: 8.8e-11 M
IC50 [3]: 3.6 nM
IC50 [1]: 440 nM
EC50 (M), human IL-6 secretion during human T cell mediated killing of CD123 transfected adherent target cells [4]: 3.8e-11 M
EC50 (M), IFN-γ secretion by cynomolgus T cells during killing of CD123 transfected adherent target cells [5]: 8.7e-10 M
EC50 (M), IFN-γ secretion by human T cells during killing of CD123 transfected adherent target cells [5]: 4e-10 M
% lysis, redirected human T cell mediated killing of KG1a cells, flow cytometry, E:T 10:1 [6]: 24%
EC50 (M), redirected human T cell mediated killing of KG1a cells, flow cytometry, E:T 10:1 [6]: 2.8e-10 M
% lysis, redirected human T cell mediated killing of MOLM-13 cells, flow cytometry, E:T 10:1 [7]: 22%
EC50 (M), redirected human T cell mediated killing of MOLM-13 cells, flow cytometry, E:T 10:1 [7]: 2.3e-11 M
% lysis, redirected cyno T cell mediated killing of MOLM-13 cells, flow cytometry, E:T 10:1 [8]: 47%
EC50 (M), redirected cyno T cell mediated killing of MOLM-13 cells, flow cytometry, E:T 10:1 [8]: 1.7e-11 M
IC50 [9]: 3.5 nM
IC50 [10]: 12 nM

B5: T017000116 (bispecific antibody)
chain: EVQLVESGGGLVQAGGSLRLSCAASGITSKINDMGWYRQTPGNYREWVASITATGTTNYRDSVKGRFTISRDNAKSTVYLQMNSLKPEDTTVYYCNTFPPISNFWGQGTLVTVSSGGGGSGGGGSGGGGSGGGGSGGGGSGGGGSGGGGSEVQLVESGGGLVQAGGPLRLSCAASGRTFSSYVMGWFRQAPGKEREFVAAIYWSNGKTQYTDSVKGRFTISGDNAKNTVYLQMNSLNPEDTAVYYCVADKDETGFRTLPIAYDYWGQGTLVTVSSGGGGSGGGGSGGGGSGGGGSGGGGSGGGGSGGGGSEVQLVESGGGLVQPGGSLRLSCVASGDVHKINFLGWYRQAPGKEREKVAHISIGDQTDYADSAKGRFTISRDESKNMVYLQMNSLKPEDTAVYFCRAFSRIYPYDYWGQGTLVTVSS
notes: Multispecific Nanobody polypeptide expressed in Pichia; also called A0110056A10-35GS-A0110055F03-35GS-T0170056G05-FLAG3-HIS6; not shown: C-terminal FLAG3-HIS6 tag
% lysis, redirected cyno T cell mediated killing of KG1a cells, flow cytometry [2]: 14%
EC50 (M), redirected cyno T cell mediated killing of KG1a cells, flow cytometry [2]: 3.7e-10 M
IC50 [3]: 1.6 nM
EC50 (M), human IL-6 secretion during human T cell mediated killing of CD123 transfected adherent target cells [4]: 9.6e-09 M
Kd [13]: 0.88 nM
EC50 (M), IFN-γ secretion by human T cells during killing of CD123 transfected adherent target cells [5]: 8.1e-09 M
% lysis, redirected human T cell mediated killing of KG1a cells, flow cytometry, E:T 10:1 [6]: 5%
EC50 (M), redirected human T cell mediated killing of KG1a cells, flow cytometry, E:T 10:1 [6]: 4.2e-10 M
% lysis, redirected human T cell mediated killing of MOLM-13 cells, flow cytometry, E:T 10:1 [7]: 17%
EC50 (M), redirected human T cell mediated killing of MOLM-13 cells, flow cytometry, E:T 10:1 [7]: 2.2e-10 M
% lysis, redirected cyno T cell mediated killing of MOLM-13 cells, flow cytometry, E:T 10:1 [8]: 15%
EC50 (M), redirected cyno T cell mediated killing of MOLM-13 cells, flow cytometry, E:T 10:1 [8]: 3.9e-10 M
IC50 [9]: 1.8 nM
IC50 [10]: 5.6 nM
